In the assay the test system is EG7 tumor cells. As to the kind of experiment: EG7 tumor challenge after intranasal immunization with OVA and αGalCer. Type of assay: in vivo. To be noted: C57BL/6 mice. As to the method: To confirm whether αGalCer could be used as a nasal vaccine adjuvant inducing anticancer activity, C57BL/6 mice were immunized with 100 μg of OVA alone or together with αGalCer (0.125, 0.5, 2.0 μg) by the intranasal administration three times at one-week intervals. Two weeks after the final immunization, 3×10^6 EG7 tumor cells were subcutaneously inoculated in the left flank of the immunized mice. On the 14th day of the inoculation, the mice were sacrificed and the palpable tumors were weighed.

The record followed here is patent US20080317769A1, “Vaccine Composition Comprising Alpha-Galactosylceramide as an Adjuvant For Intranasal Administration” (priority 2005, published 2008).

B1: OVA: model antigen given intranasally at 100 μg alone or together with αGalCer (protein, UniProt P01012 2-386, looked up)
Ovalbumin: GSIGAASMEFCFDVFKELKVHHANENIFYCPIAIMSALAMVYLGAKDSTRTQINKVVRFDKLPGFGDSIEAQCGTSVNVHSSLRDILNQITKPNDVYSFSLASRLYAEERYPILPEYLQCVKELYRGGLEPINFQTAADQARELINSWVESQTNGIIRNVLQPSSVDSQTAMVLVNAIVFKGLWEKAFKDEDTQAMPFRVTEQESKPVQMMYQIGLFRVASMASEKMKILELPFASGTMSMLVLLPDEVSGLEQLESIINFEKLTEWTSSNVMEERKIKVYLPRMKMEEKYNLTSVLMAMGITDVFSSSANLSGISSAESLKISQAVHAAHAEINEAGREVVGSAEAGVDAASVSEEFRADHPFLFCIKHIATNAVLFFGRCVSP
B1: the “mice with tumor masses” value (100 μg OVA alone intranasal, 3×10^6 EG7 cells s.c., day 14) is given as “all mice”. The “tumor weight compared with vehicle alone” value (OVA alone through the nasal cavity, p<0.05) is reported as “significantly heavy”.
